# Substitutions are numbered along the chain they refer to. Values joined by “and” are separate entries in the source; they are usually repeats but may differ in a detail not shown here. Identical values can stand only once.
# T1: Hexa-His-tagged PpiC F81A (E. coli)
# T1 chain: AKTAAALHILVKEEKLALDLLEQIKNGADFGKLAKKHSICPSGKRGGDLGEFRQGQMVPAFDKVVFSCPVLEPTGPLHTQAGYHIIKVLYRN
# T2: Hexa-His-tagged PpiC M57A (E. coli)
# T2 chain: T1 chain with M57A, A81F
# T3: Hexa-His-tagged FkpB (wild type) (E. coli, UniProt P0AEM0 1-149)
# T3 chain: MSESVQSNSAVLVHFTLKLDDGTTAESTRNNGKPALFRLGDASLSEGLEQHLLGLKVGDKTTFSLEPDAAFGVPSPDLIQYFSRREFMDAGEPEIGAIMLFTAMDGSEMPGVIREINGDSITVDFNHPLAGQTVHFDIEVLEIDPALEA
# B1: AhpC-derived peptide (peptide)
# peptide: RATFVVDPQGI
# notes: peptide from AhpC (alkyl hydroperoxide reductase subunit C), E. coli; also called AhpC peptide
# B2: RpoE peptide P2 (peptide)
# peptide: KVASLVSRYVPSGDV
# notes: peptide derived from conserved region 2 of RpoE, E. coli
# B3: Hexa-His-tagged FkpB (wild type) (enzyme, E. coli, UniProt P0AEM0 1-149, looked up)
# chain: T3 chain
# notes: FkpB, FKBP-type peptidyl-prolyl cis/trans isomerase, E. coli; minimal coding region of the fkpB gene in pET24b; also called wild-type FkpB; source: E. coli T7 express derivative lacking all six PPIs (SR21984), IPTG-induced; in lysate on Ni-NTA for co-elution; purified (Ni-NTA) for ITC; not shown: His6, C-terminal, kept
# B4: RpoE peptide P4 (peptide)
# peptide: AAIMDCPVGTVRSRI
# notes: peptide derived from conserved region 4 of RpoE, E. coli
# B5: Hexa-His-tagged PpiC (wild type) (enzyme, E. coli, UniProt P0A9L5 1-93, looked up)
# chain: MAKTAAALHILVKEEKLALDLLEQIKNGADFGKLAKKHSICPSGKRGGDLGEFRQGQMVPAFDKVVFSCPVLEPTGPLHTQFGYHIIKVLYRN
# notes: PpiC, parvulin peptidyl-prolyl cis/trans isomerase, E. coli; coding region of the ppiC gene in pET24b; The tag is called cleavable; also called wt PpiC; wild-type PpiC; source: E. coli T7 express derivative lacking all six PPIs (SR21984), IPTG-induced; in lysate on Ni-NTA for co-elution; purified (Ni-NTA) for ITC; not shown: His6, C-terminal, kept
# B6: S2-derived peptide (peptide)
# chain: TRYWNPKMKPFIFGA
# modifications: This paper prints neither letters nor limits. Limits 20-34 are recalled from the SlyD/FKBP S2 peptide of the cited work (ref. 12), as are the check residues. Terminal modifications unknown.
# B7: RseA peptide Rse1 (peptide, UniProt P0AFX7 2-29, looked up)
# peptide: QKEQLSALMDGETLDSELLNELAHNPEM
# notes: peptide corresponding to amino acid 2-29 of N-RseA (N-terminal domain of the anti-sigma factor RseA), E. coli
# B8: RpoE peptide P1 (peptide)
# peptide: YLVAQGRRPPSSDVD
# notes: peptide corresponding to the C-terminal end of conserved region 2.4 of RpoE, E. coli
# B9: RseA peptide Rse3 (peptide)
# peptide: IIEEEPVRQPATL
# notes: peptide from the conserved regions of the N-terminal domain of RseA, E. coli
# B10: RpoE peptide P3 (peptide)
# peptide: FRAREAIDNKVQPLIRR
# notes: peptide covering conserved region 4 of RpoE, E. coli, including R178
# Key:
# [1] = molecular target: B3; assay: ITC; Nano ITC; 200 μM peptide in the cell titrated with 2 mM protein, 25 injections of 2 μL, 20 °C, 20 mM sodium phosphate pH 7.5, 100 mM NaCl; 1:1 binding model; conditions: both partners purified
# [2] = molecular target: B5; assay: as above; conditions: both partners purified
# [3] = molecular target: T1, Hexa-His-tagged PpiC F81A; assay: ITC
# [4] = molecular target: T2, Hexa-His-tagged PpiC M57A; assay: ITC
# [5] = molecular target: T3, Hexa-His-tagged FkpB (wild type); assay: ITC
# RseA peptide Rse3 = molecular target: B9; assay: ITC; Nano ITC; 200 μM peptide in the cell titrated with 2 mM protein, 25 injections of 2 μL, 20 °C, 20 mM sodium phosphate pH 7.5, 100 mM NaCl; 1:1 binding model; conditions: both partners purified
# RseA peptide Rse1 = molecular target: B7; assay: as above; conditions: both partners purified
# AhpC-derived peptide = molecular target: B1; assay: as above; conditions: both partners purified
binder,measurement,setting,value
B1,Kd,[1],47 µM
same,Kd,[2],30 µM and 47.4 µM
same,Kd,[3],77.6 µM
same,Kd,[4],68.8 µM
same,Kd,[5],30.3 µM
B2,Kd,[1],10.7 µM
B3,dH,RseA peptide Rse3,-6.21 kJ/mol
same,dH,RseA peptide Rse1,-9.1 kJ/mol
same,stoichiometry N,RseA peptide Rse1,1
same,stoichiometry N,AhpC-derived peptide,0.99
B4,Kd,[1],10.3 µM
B5,stoichiometry N,AhpC-derived peptide,0.99
B6,Kd,[1],18.8 µM
B7,Kd,[1],15.1 µM
B8,Kd,[1],38.1 µM
B9,Kd,[1],13 µM
B10,Kd,[1],19 µM

# Reference: publication PMC7353009, “Identification of Substrates of Cytoplasmic Peptidyl-Prolyl Cis/Trans Isomerases and Their Collective Essentiality in Escherichia Coli” (International Journal of Molecular Sciences, 2020)
